Tests used:
[1] = biological target: LgBiT-p62 (p62 fused at its N-terminus to the Large BiT luciferase fragment; expressed from pLgBiT-p62) (not stated (cDNA from total RNA of HeLa cells)) (UniProt Q13501); assay: NanoBiT split-luciferase complementation in HeLa cells co-transfected with pLgBiT-p62 and pSmBiT-DDX5, treated with 10 uM AUTAC2-2G, AUTAC4-2G, 8-nitro-cGMP or FBnG; read 10 min after start of measurement (FIG. 1)
[2] = biological target: LgBiT-p62 (p62 fused at its N-terminus to the Large BiT luciferase fragment; expressed from pLgBiT-p62) (not stated (cDNA from total RNA of HeLa cells)) (UniProt Q13501); assay: NanoBiT split-luciferase complementation in HeLa cells co-transfected with pLgBiT-p62 and pSmBiT-DDX5, treated with 10 uM of compounds 5 to 33 or AUTAC2-2G; read 10 min after start of measurement (FIG. 2)
[3] = biological target: LgBiT-p62 (p62 fused at its N-terminus to the Large BiT luciferase fragment; expressed from pLgBiT-p62) (not stated (cDNA from total RNA of HeLa cells)) (UniProt Q13501); assay: NanoBiT split-luciferase complementation in HeLa cells co-transfected with pLgBiT-p62 and pSmBiT-DDX5; told of each of compounds 5 to 33 at 10 uM, 24 h
[4] = biological target: LgBiT-p62 (p62 fused at its N-terminus to the Large BiT luciferase fragment; expressed from pLgBiT-p62) (not stated (cDNA from total RNA of HeLa cells)) (UniProt Q13501); assay: NanoBiT split-luciferase complementation in HeLa cells co-transfected with pLgBiT-p62 and pSmBiT-DDX5; told of each of AUTAC2-2G, AUTAC4-2G, 8-nitro-cGMP and FBnG at 10 uM

SmBiT-DDX5 (DDX5, DEAD box protein 5, fused at its N-terminus to the Small BiT luciferase fragment; expressed from pSmBiT-DDX5) (from UniProt P17844 1-614)
emission intensity (NanoBiT luminescence) [1]: 1e+07 | emission intensity (NanoBiT luminescence) [2]: > 1e+07 | emission intensity, fold over cells treated with DMSO (times (vs DMSO-treated cells)) [3]: > 1000 | emission intensity, fold over cells treated with DMSO (times (vs DMSO-treated cells)) [4]: > 1000
